± gives the standard deviation of the averaged measurements.
Experiment: total protein half-life in vivo (active degradation + dilution); higher = more stable protein
[1] = E. coli NCM3722 delta-clpP, growth: N-lim chemostat, doubling time 6 h
[2] = E. coli NCM3722 delta-hslV, growth: N-lim chemostat, doubling time 6 h
[3] = E. coli NCM3722 delta-lon, growth: N-lim chemostat, doubling time 6 h
[4] = E. coli NCM3722 delta-smpB, growth: N-lim chemostat, doubling time 6 h
[5] = wild type E. coli NCM3722, growth: C-lim chemostat, doubling time 6 h
[6] = wild type E. coli NCM3722, growth: C-lim chemostat, doubling time 12 h
[7] = wild type E. coli NCM3722, growth: N-lim chemostat, doubling time 12 h
[8] = wild type E. coli NCM3722, growth: P-lim chemostat, doubling time 6 h
[9] = wild type E. coli NCM3722, growth: P-lim chemostat, doubling time 12 h
[10] = E. coli NCM3722 delta-clpP delta-lon delta-hslV, growth: N-lim chemostat, doubling time 6 h
[11] = wild type E. coli NCM3722, growth: C-lim chemostat, doubling time 3 h
[12] = wild type E. coli NCM3722, growth: N-lim chemostat, doubling time 6 h

Row | Sequence | total protein half-life in vivo [1] [h] | total protein half-life in vivo [2] [h] | total protein half-life in vivo [3] [h] | total protein half-life in vivo [4] [h] | total protein half-life in vivo [5] [h] | total protein half-life in vivo [6] [h] | total protein half-life in vivo [7] [h] | total protein half-life in vivo [8] [h] | total protein half-life in vivo [9] [h] | total protein half-life in vivo [10] [h] | total protein half-life in vivo [11] [h] | total protein half-life in vivo [12] [h]
1 | MILIIYAHPYPHHSHANKRMLEQARTLEGVEIRSLYQLYPDFNIDIAAEQEALSRADLIVWQHPMQWYSIPPLLKLWIDKVFSHGWAYGHGGTALHGKHLLWAVTTGGGESHFEIGAHPGFDVLSQPLQATAIYCGLNWLPPFAMHCTFICDDETLEGQARHYKQRLLEWQEAHHG [P0A754] | 6.16 | 5.27 | 6.37 | 6.82 | 4.93 | 10.9 ± 0.14 | 10.5 ± 2.2 | 6.43 ± 0.21 | 10.3 ± 1.5 | – | – | –
2 | MILTDPEWQAVLLSLKVSSLAVLFSLPFGIFFAWLLVRCTFPGKALLDSVLHLPLVLPPVVVGYLLLVSMGRRGFIGERLYDWFGITFAFSWRGAVLAAAVMSFPLMVRAIRLALEGVDVKLEQAARTLGAGRWRVFFTITLPLTLPGIIVGTVLAFARSLGEFGATITFVSNIPGETRTIPSAMYTLIQTPGGESGAARLCIISIALAMISLLISEWLARISRERAGR [P0AF01] | 6.15 | – | – | – | 4.97 | 9.85 | 9.16 | – | – | 4.97 | 3.03 | 5.21
3 | MILTPIRRYGAMILMLLTLVFSSEVLAKTHTTTASQKSHLTKASNKQVSSKQEYSRNSAKSSSLPDLRKYPSGTPRKKAFLRTVMPYITSQNAAITAERNWLISKQYQGQWSPAERARLKDIAKRYKVKWSGNTRKIPWNTLLERVDIIPTSMVATMAAAESGWGTSKLARNNNNLFGMKCMKGRCTNAPGKVKGYSQFSSVKESVSAYVTNLNTHPAYSSFRKSRAQLRKADQEVTATAMIHKLKGYSTKGKSYNNYLFAMYQDNQRLIAAHM | – | – | – | 3.76 ± 0.26 | 2.47 ± 0.18 | 5.88 ± 0.34 | – | – | – | 0.848 | 1.22 | –
4 | MINALGLLEVDGMVAAIDAADAMLKAANVRLLSHEVLDPGRLTLVVEGDLAACRAALDAGCAAAMRTGRVISRKEIGRPDDDTQWLVTGFNRQPKQPVREPDAPVIVAESADELLALLTSVRQGMTAGEVAAHFGWPLEKARNALEQLFSAGTLRKRSSRYRLKPH | – | – | – | – | – | – | – | – | – | – | 1.02 ± 0.097 | –
5 | MINDIKWVQAQRKATDWRQAVEIATRPLVAYGAAQPCYVNGIIENTLNWGPYYLIAPGIALPHARPEQGANYNQVSITTLRTPVAFGNEECDPVWLLLCVSATDANAHILTIQRISQFIDSPQRLTAVGNASTDDALFALVSG | 4.17 ± 0.58 | 4.11 | 4.24 ± 0.33 | 4.08 ± 0.47 | 4.65 ± 0.36 | 6.74 ± 0.098 | 8.43 ± 2.6 | 6.04 | – | 4.94 | – | 4.66
6 | MINVLLVDDHELVRAGIRRILEDIKGIKVVGEASCGEDAVKWCRTNAVDVVLMDMSMPGIGGLEATRKIARSTADVKIIMLTVHTENPLPAKVMQAGAAGYLSKGAAPQEVVSAIRSVYSGQRYIASDIAQQMALSQIEPEKTESPFASLSERELQIMLMITKGQKVNEISEQLNLSPKTVNSYRYRMFSKLNIHGDVELTHLAIRHGLCNAETLSSQ [P0AED5] | 2.492 ± 0.024 | 1.84 ± 0.24 | 2.66 ± 0.048 | 1.67 ± 0.048 | 3.04 ± 0.16 | 4.05 ± 0.16 | 2.67 ± 0.15 | 1.8 ± 0.087 | 3.89 ± 0.4 | 5.39 ± 0.6 | 1.72 ± 0.12 | 1.89 ± 0.24
7 | MINVQNVSKTFILHQQNGVRLPVLNRASLTVNAGECVVLHGHSGSGKSTLLRSLYANYLPDEGQIQIKHGDEWVDLVTAPARKVVEIRKTTVGWVSQFLRVIPRISALEVVMQPLLDTGVPREACAAKAARLLTRLNVPERLWHLAPSTFSGGEQQRVNIARGFIVDYPILLLDEPTASLDAKNSAAVVELIREAKTRGAAIVGIFHDEAVRNDVADRLHPMGASS | – | – | – | – | – | – | – | 0.0732 | 0.788 ± 0.69 | – | – | –
8 | MIPVERRQIILEMVAEKGIVSIAELTDRMNVSHMTIRRDLQKLEQQGAVVLVSGGVQSPGRVAHEPSHQVKTALAMTQKAAIGKLAASLVQPGSCIYLDAGTTTLAIAQHLIHMESLTVVTNDFVIADYLLDNSNCTIIHTGGAVCRENRSCVGEAAATMLRSLMIDQAFISASSWSVRGISTPAEDKVTVKRAIASASRQRVLVCDATKYGQVATWLALPLSEFDQIITDDGLPESASRALVKQDLSLLVAKNE | 4.93 ± 0.35 | 4.72 ± 0.089 | – | 4.76 ± 0.23 | 5.33 ± 0.07 | 8.85 ± 0.59 | 8.78 ± 0.59 | 4.69 ± 0.52 | 9.046 ± 0.035 | 5.5397 ± 0.0019 | 2.62 ± 0.12 | 4.82 ± 0.13
9 | MIREAQRSELPAILELWLESTTWGHPFIKANYWRDCIPLVRDAYLANAQNWVWEEDGKLLGFVSIMEGRFLAAMFVAPKAVRRGIGKALMQYVQQRHPHLMLEVYQKNQPAINFYQAQGFHIVDCAWQDETQLPTWIMSWPVVQTL | – | 2.72 | 3.34 ± 0.79 | – | 3.55 | 4.76 | 3.08 ± 0.13 | 4.08 | 6.74 ± 0.19 | 5.19 | > 4 | 2.33 ± 0.12

From the supplement of paper PMC11246515
